± gives the uncertainty stated by the source.

39 variants from the Human Domainome abundance scans (Beltran et al. 2025) can be followed below.

The labels stand for the following.
B1: SWI/SNF-related matrix-associated actin-dependent regulator of chromatin subfamily B member 1, residues 181 to 248; numbered along this chain, Q12824 (parent)
chain: SQPEVLVPIRLDMEIDGQKLRDAFTWNMNEKLMTPEMFSEILCDDLDLNPLTFVPAIASAIRQQIESY

This data set covers variants of B1. Nature of the data set: abundance fitness (aPCA) (normalised: wild type 0, dead -1); higher = more abundant; growth selection in yeast, the domain comes from the species named. To be noted: Homo sapiens.
For the variant SQPEVLVPIRLDMEIDGQKLRDAFTWNMNEKLMTPEMFSEILCDHLDLNPLTFVPAIASAIRQQIESY, the abundance fitness was -0.143 ± 0.39.

Regarding SQPEVLVPIRLDMEIDGQKLRDAFTWNMNEKLMTPEMFSEILCDGLDLNPLTFVPAIASAIRQQIESY, the abundance fitness was -0.185 ± 0.26.

Take SQPEVLVPIRLDMEIDGQKLRDAFTWNMNEKLMTPEMFSEILCDQLDLNPLTFVPAIASAIRQQIESY: the abundance fitness is -0.284 ± 0.48.

In the case of SQPEVLVPIRLDMEIDGQKLRDAFTWNMNEKLMTPEMFSEILCDRLDLNPLTFVPAIASAIRQQIESY, the abundance fitness came to 0.193 ± 0.15.

SQPEVLVPIRLDMEIDGQKLRDAFTWNMNEKLMTPEMFSEILCDDLDLGPLTFVPAIASAIRQQIESY: the abundance fitness was -0.735 ± 0.11.

Take SQPEVLVPIRLDMEIDGQKLRDAFTWNMNEKLMTPEMFSEILCDDLDLVPLTFVPAIASAIRQQIESY: the abundance fitness is -0.814 ± 0.076.

In the case of SQPEVLVPIRLDMEIDGQKLRDAFTWNMNEKLMTPEMFSEILCDDLDLCPLTFVPAIASAIRQQIESY, the abundance fitness was -0.356 ± 0.075.

SQPEVLVPIRLDMEIDGQKLRDAFTWNMNEKLMTPEMFSEILCDDLDLKPLTFVPAIASAIRQQIESY: the abundance fitness is -0.824 ± 0.13.

As for SQPEVLVPIRLDMEIDGQKLRDAFTWNMNEKLMTPEMFSEILCDDLDLHPLTFVPAIASAIRQQIESY, the abundance fitness was -0.355 ± 0.14.

As to SQPEVLVPIRLDMEIDGQKLRDAFTWNMNEKLMTPEMFSEILCDDLDLPPLTFVPAIASAIRQQIESY, the abundance fitness is -0.097 ± 0.068.

For SQPEVLVPIRLDMEIDGQKLRDAFTWNMNEKLMTPEMFSEILCDDLDLLPLTFVPAIASAIRQQIESY, the abundance fitness was -0.924 ± 0.079.

On to SQPEVLVPIRLDMEIDGQKLRDAFTWNMNEKLMTPEMFSEILCDDLDLMPLTFVPAIASAIRQQIESY, for which the abundance fitness was -0.846 ± 0.13.

Regarding SQPEVLVPIRLDMEIDGQKLRDAFTWNMNEKLMTPEMFSEILCDDLDLRPLTFVPAIASAIRQQIESY, the abundance fitness was -0.789 ± 0.09.

As to SQPEVLVPIRLDMEIDGQKLRDAFTWNMNEKLMTPEMFSEILCDDLDLIPLTFVPAIASAIRQQIESY, the abundance fitness was -0.932 ± 0.23.

On to SQPEVLVPIRLDMEIDGQKLRDAFTWNMNEKLMTPEMFSEILCDDLDLYPLTFVPAIASAIRQQIESY, for which the abundance fitness is -0.666 ± 0.11.

Regarding SQPEVLVPIRLDMEIDGQKLRDAFTWNMNEKLMTPEMFSEILCDDLDLWPLTFVPAIASAIRQQIESY, the abundance fitness was -0.783 ± 0.13.

For the variant SQPEVLVPIRLDMEIDGQKLRDAFTWNMNEKLMTPEMFSEILCDDLDLQPLTFVPAIASAIRQQIESY, the abundance fitness is -0.458 ± 0.055.

On to SQPEVLVPIRLDMEIDGQKLRDAFTWNMNEKLMTPEMFSEILCDDLDLFPLTFVPAIASAIRQQIESY, for which the abundance fitness is -0.923 ± 0.12.

In the case of SQPEVLVPIRLDMEIDGQKLRDAFTWNMNEKLMTPEMFSEILCDDLDLSPLTFVPAIASAIRQQIESY, the abundance fitness is -0.498 ± 0.058.

For the variant SQPEVLVPIRLDMEIDGQKLRDAFTWNMNEKLMTPEMFSEILCDDLDLDPLTFVPAIASAIRQQIESY, the abundance fitness is -0.057 ± 0.046.

As to SQPEVLVPIRLDMEIDGQKLRDAFTWNMNEKLMTPEMFSEILCDDLDLTPLTFVPAIASAIRQQIESY, the abundance fitness was -0.874 ± 0.076.

Consider SQPEVLVPIRLDMEIDGQKLRDAFTWNMNEKLMTPEMFSEILCDDLDLEPLTFVPAIASAIRQQIESY, for which the abundance fitness was -0.292 ± 0.053.

For SQPEVLVPIRLDMEIDGQKLRDAFTWNMNEKLMTPEMFSEILCDDWDLNPLTFVPAIASAIRQQIESY, the abundance fitness is 0.017 ± 0.069.

Regarding SQPEVLVPIRLDMEIDGQKLRDAFTWNMNEKLMTPEMFSEILCDDPDLNPLTFVPAIASAIRQQIESY, the abundance fitness is -1.08 ± 0.23.

Turning to SQPEVLVPIRLDMEIDGQKLRDAFTWNMNEKLMTPEMFSEILCDDVDLNPLTFVPAIASAIRQQIESY, the abundance fitness is -0.746 ± 0.12.

For the variant SQPEVLVPIRLDMEIDGQKLRDAFTWNMNEKLMTPEMFSEILCDDADLNPLTFVPAIASAIRQQIESY, the abundance fitness was -0.125 ± 0.051.

Turning to SQPEVLVPIRLDMEIDGQKLRDAFTWNMNEKLMTPEMFSEILCDDRDLNPLTFVPAIASAIRQQIESY, the abundance fitness was found to be 0.161 ± 0.046.

SQPEVLVPIRLDMEIDGQKLRDAFTWNMNEKLMTPEMFSEILCDDSDLNPLTFVPAIASAIRQQIESY: the abundance fitness is -0.694 ± 0.1.

Turning to SQPEVLVPIRLDMEIDGQKLRDAFTWNMNEKLMTPEMFSEILCDDYDLNPLTFVPAIASAIRQQIESY, the abundance fitness was -0.038 ± 0.099.

Take SQPEVLVPIRLDMEIDGQKLRDAFTWNMNEKLMTPEMFSEILCDDNDLNPLTFVPAIASAIRQQIESY: the abundance fitness is -0.271 ± 0.17.

Consider SQPEVLVPIRLDMEIDGQKLRDAFTWNMNEKLMTPEMFSEILCDDTDLNPLTFVPAIASAIRQQIESY, for which the abundance fitness was -0.954 ± 0.24.

SQPEVLVPIRLDMEIDGQKLRDAFTWNMNEKLMTPEMFSEILCDDEDLNPLTFVPAIASAIRQQIESY: the abundance fitness was -0.204 ± 0.13.

Regarding SQPEVLVPIRLDMEIDGQKLRDAFTWNMNEKLMTPEMFSEILCDDHDLNPLTFVPAIASAIRQQIESY, the abundance fitness worked out at 0.318 ± 0.14.

On to SQPEVLVPIRLDMEIDGQKLRDAFTWNMNEKLMTPEMFSEILCDDQDLNPLTFVPAIASAIRQQIESY, for which the abundance fitness was -0.162 ± 0.064.

For the variant SQPEVLVPIRLDMEIDGQKLRDAFTWNMNEKLMTPEMFSEILCDDMDLNPLTFVPAIASAIRQQIESY, the abundance fitness came to 0.05 ± 0.21.

Consider SQPEVLVPIRLDMEIDGQKLRDAFTWNMNEKLMTPEMFSEILCDDCDLNPLTFVPAIASAIRQQIESY, for which the abundance fitness was -0.231 ± 0.2.

Turning to SQPEVLVPIRLDMEIDGQKLRDAFTWNMNEKLMTPEMFSEILCDDGDLNPLTFVPAIASAIRQQIESY, the abundance fitness is -0.37 ± 0.12.

Turning to SQPEVLVPIRLDMEIDGQKLRDAFTWNMNEKLMTPEMFSEILCDDFDLNPLTFVPAIASAIRQQIESY, the abundance fitness was -0.091 ± 0.09.

On to SQPEVLVPIRLDMEIDGQKLRDAFTWNMNEKLMTPEMFSEILCDDKDLNPLTFVPAIASAIRQQIESY, for which the abundance fitness was 0.211 ± 0.075.
